Laboratory results as given in the supplement of paper PMC11246515.
± gives the standard deviation of the averaged measurements.

Assay: total protein half-life in vivo (active degradation + dilution); higher = more stable protein
[1] = E. coli NCM3722 delta-clpP delta-lon delta-hslV, growth: N-lim chemostat, doubling time 6 h
[2] = E. coli NCM3722 delta-hslV, growth: N-lim chemostat, doubling time 6 h
[3] = E. coli NCM3722 delta-lon, growth: N-lim chemostat, doubling time 6 h
[4] = E. coli NCM3722 delta-smpB, growth: N-lim chemostat, doubling time 6 h
[5] = wild type E. coli NCM3722, growth: C-lim chemostat, doubling time 3 h
[6] = wild type E. coli NCM3722, growth: C-lim chemostat, doubling time 6 h
[7] = wild type E. coli NCM3722, growth: C-lim chemostat, doubling time 12 h
[8] = wild type E. coli NCM3722, growth: N-lim chemostat, doubling time 6 h
[9] = wild type E. coli NCM3722, growth: N-lim chemostat, doubling time 12 h
[10] = wild type E. coli NCM3722, growth: P-lim chemostat, doubling time 6 h
[11] = wild type E. coli NCM3722, growth: P-lim chemostat, doubling time 12 h
[12] = E. coli NCM3722 delta-clpP, growth: N-lim chemostat, doubling time 6 h

| Sequence | total protein half-life in vivo [1] [h] | total protein half-life in vivo [2] [h] | total protein half-life in vivo [3] [h] | total protein half-life in vivo [4] [h] | total protein half-life in vivo [5] [h] | total protein half-life in vivo [6] [h] | total protein half-life in vivo [7] [h] | total protein half-life in vivo [8] [h] | total protein half-life in vivo [9] [h] | total protein half-life in vivo [10] [h] | total protein half-life in vivo [11] [h] | total protein half-life in vivo [12] [h] |
| --- | --- | --- | --- | --- | --- | --- | --- | --- | --- | --- | --- | --- |
| MNKLIELRRAKRLALSLLLIAAATFVVTLFLPPNFWVSGVKAIAEAAMVGALADWFAVVALFRRVPIPIISRHTAIIPRNKDRIGENLGQFVQEKFLDTQSLVALIRRHEPALLIGNWFSQPENARRVGQHLLQIMSGFLELTDDARIQRLLKRAVHRAIDKVDLSGTSALMLESMTKNDRHQVLLDTLIAQLIALLQRDKSRKFIAQQIVRWLESEHPLKAKILPTEWLGEHSAELVSDAVNSLLDDISRDRAHQIRHAFDRATFALIDKLKNDPEMAARADAVKSYLKEDEAFNRYLSELWGDLREWLKVDINSEDSRVKERIARAGQWFGETLIADDALRASLNGHLEQAAHRVAPEFSAFLTRHISDTVKSWDARDMSRQIELNIGKDLQFIRVNGTLVGGCIGLILYLLSQLPALFPLGNF | 5.72 ± 0.23 | 6.12 ± 0.14 | 5.6 ± 0.16 | 5.794 ± 0.016 | 3.17 ± 0.071 | 5.3 ± 0.096 | 12.3 ± 2.3 | 6.365 ± 0.03 | 12.37 ± 0.058 | 5.7 ± 0.39 | 12.4 ± 1.6 | – |
| MNGKLQSSDVKNETPYNIPLLINENVISSGISLISLWHTYADEHYRVIWPRDKKKPLIANSWVAVYTVQGCGKILLKNGEQITLHGNCIIFLKPMDIHSYHCEGLVWEQYWMEFTPTSMMDIPVGQQSVIYNGEIYNQELTEVAELITSPEAIKNNLAVAFLTKIIYQWICLMYADGKKDPQRRQIEKLIATLHASLQQRWSVADMAATIPCSEAWLRRLFLRYTGKTPKEYYLDARLDLALSLLKQQGNSVGEVADTLNFFDSFHFSKAFKHKFGYAPSAVLKNTDQHPTDASPHN | 5.49 ± 0.17 | – | – | 1.33 ± 0.21 | – | – | – | – | – | – | – | – |
| MANRMILNETAWFGRGAVGALTDEVKRRGYQKALIVTDKTLVQCGVVAKVTDKMDAAGLAWAIYDGVVPNPTITVVKEGLGVFQNSGADYLIAIGGGSPQDTCKAIGIISNNPEFADVRSLEGLSPTNKPSVPILAIPTTAGTAAEVTINYVITDEEKRRKFVCVDPHDIPQVAFIDADMMDGMPPALKAATGVDALTHAIEGYITRGAWALTDALHIKAIEIIAGALRGSVAGDKDAGEEMALGQYVAGMGFSNVGLGLVHGMAHPLGAFYNTPHGVANAILLPHVMRYNADFTGEKYRDIARVMGVKVEGMSLEEARNAAVEAVFALNRDVGIPPHLRDVGVRKEDIPALAQAALDDVCTGGNPREATLEDIVELYHTAW [P0A9S1] | 4.47 ± 0.099 | 3.392 ± 0.0085 | 4.76 ± 0.29 | 2.66 ± 0.051 | 3.02 ± 0.11 | 5.64 ± 0.23 | 10.6 ± 0.27 | 4.48 ± 1 | 4.94 ± 0.27 | 5.483 ± 0.014 | 10.2 ± 0.13 | 3.35 ± 0.51 |
| MWYQKTLTLSAKSRGFHLVTDEILNQLADMPRVNIGLLHLLLQHTSASLTLNENCDPTVRHDMERFFLRTVPDNGNYEHDYEGADDMPSHIKSSMLGTSLVLPVHKGRIQTGTWQGIWLGEHRIHGGSRRIIATLQGE [P0AF48] | 4.54 ± 0.35 | 4.19 | 4.31 ± 0.8 | 4.33 ± 0.17 | 2.96 ± 0.08 | 4.74 ± 0.15 | 11.9 ± 1.5 | 3.98 ± 0.048 | 6.66 ± 0.43 | 5.51 ± 0.073 | 11.3 ± 0.81 | > 8 |
| MSSISLIQPDRDLFSWPQYWAACFGPAPFLPMSREEMDQLGWDSCDIILVTGDAYVDHPSFGMAICGRMLEAQGFRVGIIAQPDWSSKDDFMRLGKPNLFFGVTAGNMDSMINRYTADRRLRHDDAYTPDNVAGKRPDRATLVYTQRCKEAWKDVPVILGGIEASLRRTAHYDYWSDTVRRSVLVDSKADMLMFGNGERPLVEVAHRLAMGEPISEIRDVRNTAIIVKEALPGWSGVDSTRLDTPGKIDPIPHPYGEDLPCADNKPVAPKKQEAKAVTVQPPRPKPWEKTYVLLPSFEKVKGDKVLYAHASRILHHETNPGCARALMQKHGDRYVWINPPAIPLSTEEMDSVFALPYKRVPHPAYGNARIPAYEMIRFSVNIMRGCFGGCSFCSITEHEGRIIQSRSEDSIINEIEAIRDTVPGFTGVISDLGGPTANMYMLRCKSPRAEQTCRRLSCVYPDICPHMDTNHEPTINLYRRARDLKGIKKILIASGVRYDIAVEDPRYIKELATHHVGGYLKIAPEHTEEGPLSKMMKPGMGSYDRFKELFDTYSKQAGKEQYLIPYFISAHPGTRDEDMVNLALWLKKHRFRLDQVQNFYPSPLANSTTMYYTGKNPLAKIGYKSEDVFVPKGDKQRRLHKALLRYHDPANWPLIRQALEAMGKKHLIGSRRDCLVPAPTIEEMREARRQNRNTRPALTKHTPMATQRQTPATAKKASSTQSRPVNAGAKKRPKAAVGR | 5.41 ± 1.1 | – | 0.614 | – | 0.206 | – | – | – | – | – | 1.72 | 1.08 |
| MKKYLALALIAPLLISCSTTKKGDTYNEAWVKDTNGFDILMGQFAHNIENIWGFKEVVIAGPKDYVKYTDQYQTRSHINFDDGTITIETIAGTEPAAHLRRAIIKTLLMGDDPSSVDLYSDVDDITISKEPFLYGQVVDNTGQPIRWEGRASNFADYLLKNRLKSRSNGLRIIYSVTINMVPNHLDKRAHKYLGMVRQASRKYGVDESLILAIMQTESSFNPYAVSRSDALGLMQVVQHTAGKDVFRSQGKSGTPSRSFLFDPASNIDTGTAYLAMLNNVYLGGIDNPTSRRYAVITAYNGGAGSVLRVFSNDKIQAANIINTMTPGDVYQTLTTRHPSAESRRYLYKVNTAQKSYRRR [P0C066] | 6.29 ± 0.53 | 6.24 ± 0.8 | – | 4.92 ± 0.2 | 3.27 ± 0.4 | 5.3 ± 0.52 | 9.66 ± 1.5 | 6.34 ± 0.94 | 12.6 ± 2.2 | 7.12 | – | – |
| MIKWPWKVQESAHQTALPWQEALSIPLLTCLTEQEQSKLVTLAERFLQQKRLVPLQGFELDSLRSCRIALLFCLPVLELGLEWLDGFHEVLIYPAPFVVDDEWEDDIGLVHNQRIVQSGQSWQQGPIVLNWLDIQDSFDASGFNLIIHEVAHKLDTRNGDRASGVPFIPLREVAGWEHDLHAAMNNIQEEIELVGENAASIDAYAASDPAECFAVLSEYFFSAPELFAPRFPSLWQRFCQFYQQDPLQRLHHANDTDSFSATNVH | 4.48 ± 0.42 | 1.36 ± 0.03 | 1.79 ± 0.075 | 1.51 ± 0.037 | 1.16 ± 0.016 | 1.87 ± 0.28 | 2.19 ± 0.13 | 1.53 | 2.44 ± 0.53 | 1.76 ± 0.39 | 3.29 ± 0.75 | 3.08 ± 0.31 |
| MLEMLMQWYRRRFSDPEAIALLVILVAGFGIIFFFSGLLAPLLVAIVLAYLLEWPTVRLQSIGCSRRWATSIVLVVFVGILLLMAFVVLPIAWQQGIYLIRDMPGMLNKLSDFAATLPRRYPALMDAGIIDAMAENMRSRMLTMGDSVVKISLASLVGLLTIAVYLVLVPLMVFFLLKDKEQMLNAVRRVLPRNRGLAGQVWKEMNQQITNYIRGKVLEMIVVGIATWLGFLLFGLNYSLLLAVLVGFSVLIPYIGAFVVTIPVVGVALFQFGAGTEFWSCFAVYLIIQALDGNLLVPVLFSEAVNLHPLVIILSVVIFGGLWGFWGVFFAIPLATLIKAVIHAWPDGQIAQE [P0AFI9] | > 8 | – | – | > 8 | > 4 | 6.12 ± 0.64 | 12.2 ± 0.49 | – | 10.4 ± 1.8 | – | – | – |
| MTKHARFFLLPSFILISAALIAGCNDKGEEKAHVGEPQVTVHIVKTAPLEVKTELPGRTNAYRIAEVRPQVSGIVLNRNFTEGSDVQAGQSLYQIDPATYQANYDSAKGELAKSEAAAAIAHLTVKRYVPLVGTKYISQQEYDQAIADARQADAAVIAAKATVESARINLAYTKVTAPISGRIGKSTVTEGALVTNGQTTELATVQQLDPIYVDVTQSSNDFMRLKQSVEQGNLHKENATSNVELVMENGQTYPLKGTLQFSDVTVDESTGSITLRAVFPNPQHTLLPGMFVRARIDEGVQPDAILIPQQGVSRTPRGDATVLIVNDKSQVEARPVVASQAIGDKWLISEGLKSGDQVIVSGLQKARPGEQVKATTDTPADTASK | – | – | – | – | – | – | 13.2 | – | – | – | – | – |
| MAYYSIGDVAERCGINPVTLRAWQRRYGLLKPQRSEGGHRLFDEEDIQRIEEIKRWISNGVPVGKVKALLETTSQDTEDDWSRLQEEMMSILRMANPAKLRARIISLGREYPVDQLINHVYLPVRQRLVLDHNTSRIMSSMFDGALIEYAATSLFEMRRKPGKEAILMAWNVEERARLWLEAWRLSLSGWHISVLADPIESPRPELFPTQTLIVWTGMAPTRRQNELLQHWGEQGYKVIFHAP | 4.63 ± 0.56 | 1.93 | – | 1.79 ± 0.14 | 2.13 ± 0.29 | 3.02 ± 0.39 | 4.42 ± 0.35 | 2 ± 0.16 | 2.72 ± 0.041 | 1.39 ± 0.094 | 5.43 | 3.95 ± 2.5 |
| MIYPDEAMLYAPVEWHDCSEGFEDIRYEKSTDGIAKITINRPQVRNAFRPLTVKEMIQALADARYDDNIGVIILTGAGDKAFCSGGDQKVRGDYGGYKDDSGVHHLNVLDFQRQIRTCPKPVVAMVAGYSIGGGHVLHMMCDLTIAADNAIFGQTGPKVGSFDGGWGASYMARIVGQKKAREIWFLCRQYDAKQALDMGLVNTVVPLADLEKETVRWCREMLQNSPMALRCLKAALNADCDGQAGLQELAGNATMLFYMTEEGQEGRNAFNQKRQPDFSKFKRNP [P0ABU0] | 4.73 ± 0.74 | 4.15 ± 0.17 | 4.48 ± 0.44 | 3.8 ± 0.061 | 2.9 ± 0.51 | 5.55 ± 0.53 | 9.64 ± 0.8 | 3.88 ± 0.12 | 6.07 ± 0.33 | 5.58 ± 0.069 | 10.85 ± 0.06 | 4.048 ± 0.036 |
